This note sets out measurements from paper doi:10.1101/2023.10.30.564738 (bioRxiv, 2023).

Positions count from the first letter of the chain named. Names may count otherwise.

This assay has as its target Ndc80 complex (Ndc80-Flag:Nuf2:Spc24:Spc25) (S. cerevisiae, UniProt P40460 1-691; P33895 1-451; Q04477 1-213; P40014 1-221). Nature of the assay: SEC. On the technique in general: SEC sorts molecules by how far they enter the pores of the column.

Chain of Ndc80 complex (Ndc80-Flag:Nuf2:Spc24:Spc25) (P40460 whole entry, chain 1 of 4): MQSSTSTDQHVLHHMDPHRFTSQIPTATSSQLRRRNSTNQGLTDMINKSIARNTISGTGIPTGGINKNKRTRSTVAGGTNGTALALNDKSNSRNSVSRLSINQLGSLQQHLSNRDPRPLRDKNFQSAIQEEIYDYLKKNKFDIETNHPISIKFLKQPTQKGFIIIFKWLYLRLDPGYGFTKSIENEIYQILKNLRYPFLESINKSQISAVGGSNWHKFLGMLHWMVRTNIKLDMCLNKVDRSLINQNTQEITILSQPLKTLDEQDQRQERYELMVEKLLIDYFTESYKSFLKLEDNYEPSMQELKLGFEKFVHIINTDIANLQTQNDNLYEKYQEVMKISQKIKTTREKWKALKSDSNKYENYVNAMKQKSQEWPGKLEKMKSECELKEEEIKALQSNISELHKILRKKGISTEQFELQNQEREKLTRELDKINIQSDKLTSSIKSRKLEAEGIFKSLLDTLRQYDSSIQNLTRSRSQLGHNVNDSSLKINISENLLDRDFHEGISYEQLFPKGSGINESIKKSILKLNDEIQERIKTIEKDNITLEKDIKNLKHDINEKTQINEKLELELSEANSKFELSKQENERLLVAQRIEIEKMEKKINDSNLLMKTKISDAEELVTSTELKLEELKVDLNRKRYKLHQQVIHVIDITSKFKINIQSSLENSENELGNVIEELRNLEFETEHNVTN
Chain of Ndc80 complex (Ndc80-Flag:Nuf2:Spc24:Spc25) (P33895 whole entry, chain 2 of 4): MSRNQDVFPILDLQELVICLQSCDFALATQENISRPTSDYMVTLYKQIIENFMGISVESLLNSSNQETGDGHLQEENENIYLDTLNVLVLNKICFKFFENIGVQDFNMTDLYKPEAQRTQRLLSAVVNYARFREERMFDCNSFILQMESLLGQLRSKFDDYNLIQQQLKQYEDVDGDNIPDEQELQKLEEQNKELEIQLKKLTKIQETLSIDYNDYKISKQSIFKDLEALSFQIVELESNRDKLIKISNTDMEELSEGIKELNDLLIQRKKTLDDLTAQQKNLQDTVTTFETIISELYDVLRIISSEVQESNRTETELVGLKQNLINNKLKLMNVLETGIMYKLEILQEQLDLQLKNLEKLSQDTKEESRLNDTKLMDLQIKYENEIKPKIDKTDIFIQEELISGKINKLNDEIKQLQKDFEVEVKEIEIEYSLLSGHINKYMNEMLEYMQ
Chain of Ndc80 complex (Ndc80-Flag:Nuf2:Spc24:Spc25) (Q04477 whole entry, chain 3 of 4): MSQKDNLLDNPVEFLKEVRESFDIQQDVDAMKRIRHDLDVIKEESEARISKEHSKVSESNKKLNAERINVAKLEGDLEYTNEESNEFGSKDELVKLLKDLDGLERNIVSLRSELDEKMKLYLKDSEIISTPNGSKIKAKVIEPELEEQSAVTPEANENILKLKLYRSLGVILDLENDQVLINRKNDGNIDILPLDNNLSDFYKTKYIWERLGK
Chain of Ndc80 complex (Ndc80-Flag:Nuf2:Spc24:Spc25) (P40014 whole entry, chain 4 of 4): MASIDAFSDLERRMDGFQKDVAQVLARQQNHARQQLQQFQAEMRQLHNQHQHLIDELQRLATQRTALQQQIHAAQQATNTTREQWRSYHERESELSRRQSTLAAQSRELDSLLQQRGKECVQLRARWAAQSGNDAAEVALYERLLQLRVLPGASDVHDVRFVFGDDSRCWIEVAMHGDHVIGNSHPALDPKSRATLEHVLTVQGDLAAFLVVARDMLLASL

B1: StrepII-tagged full-length Mps1 (wild type) (natural protein, S. cerevisiae, UniProt P54199 1-764, looked up)
chain: MSTNSFHDYVDLKSRTNTRQFSDDEEFTTPPKLSNFGSALLSHTEKTSASEILSSHNNDKIANRLEEMDRSSSRSHPPPSMGNLTSGHTSTSSHSTLFGRYLRNNHQTSMTTMNTSDIEINVGNSLDKSFERIRNLRQNMKEDITAKYAERRSKRFLISNRTTKLGPAKRAMTLTNIFDEDVPNSPNQPINARETVELPLEDSHQTNFKETKRNTDYDSIDFGDLNPIQYIKKHNLPTSDLPLISQIYFDKQREENRQAALRKHSSRELLYKSRSSSSSLSSNNLLANKDNSITSNNGSQPRRKVSTGSSSSKSSIEIRRALKENIDTSNNSNFNSPIHKIYKGISRNKDSDSEKREVLRNISINANHADNLLQQENKRLKRSLDDAITNENINSKNLEVFYHRPAPKPPVTKKVEIVEPAKSASLSNNRNIITVNDSQYEKIELLGRGGSSRVYKVKGSGNRVYALKRVSFDAFDDSSIDGFKGEIELLEKLKDQKRVIQLLDYEMGDGLLYLIMECGDHDLSQILNQRSGMPLDFNFVRFYTKEMLLCIKVVHDAGIVHSDLKPANFVLVKGILKIIDFGIANAVPEHTVNIYRETQIGTPNYMAPEALVAMNYTQNSENQHEGNKWKVGRPSDMWSCGCIIYQMIYGKPPYGSFQGQNRLLAIMNPDVKIPFPEHTSNNEKIPKSAIELMKACLYRNPDKRWTVDKVLSSTFLQPFMISGSIMEDLIRNAVRYGSEKPHISQDDLNDVVDTVLRKFADYKI
Regarding B1, the binding result was “binds”.

B2: StrepII-tagged full-length Mps1^bp (R151D R152D R155D) (natural protein, S. cerevisiae, UniProt P54199 1-764, looked up)
chain: B1 chain with R151D, R152D, R155D
B2: the binding result is given as “binds”.
